Blank lines part the entries; values can stand above or below the binder they belong to.
How the values were obtained:
Assay in all cases: two-hybrid library CCNG1;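 note: natural log of median RNA to DNA barcode read ratio; higher means stronger binding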
P6bH1 = molecular target: T1, P6bH1
T1 chain: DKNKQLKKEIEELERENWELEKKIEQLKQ

4H883-bN = molecular target: T2, 4H883-bN
T2 chain: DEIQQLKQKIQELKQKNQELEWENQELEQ

4H918-bN = molecular target: T3, 4H918-bN
T3 chain: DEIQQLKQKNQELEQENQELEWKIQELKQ

4H855-bN = molecular target: T4, 4H855-bN
T4 chain: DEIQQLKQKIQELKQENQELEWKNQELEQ

4H953-bN = molecular target: T5, 4H953-bN
T5 chain: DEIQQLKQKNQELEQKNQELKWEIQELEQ

4H908-bN = molecular target: T6, 4H908-bN
T6 chain: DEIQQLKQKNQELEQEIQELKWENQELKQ

4H797-bN = molecular target: T7, 4H797-bN
T7 chain: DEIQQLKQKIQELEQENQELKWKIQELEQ

4H967-bN = molecular target: T8, 4H967-bN
T8 chain: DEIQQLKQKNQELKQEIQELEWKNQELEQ

P12bH1 = molecular target: T9, P12bH1
T9 chain: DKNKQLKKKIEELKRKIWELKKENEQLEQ

4H968-bN = molecular target: T10, 4H968-bN
T10 chain: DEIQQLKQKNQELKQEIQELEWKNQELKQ

P1bH1 = molecular target: T11, P1bH1
T11 chain: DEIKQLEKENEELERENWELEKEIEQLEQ

P2bH1 = molecular target: T12, P2bH1
T12 chain: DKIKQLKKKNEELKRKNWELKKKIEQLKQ

P7bH1 = molecular target: T13, P7bH1
T13 chain: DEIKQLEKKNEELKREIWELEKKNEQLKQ

P8bH1 = molecular target: T14, P8bH1
T14 chain: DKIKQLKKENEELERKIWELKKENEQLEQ

P9bH1 = molecular target: T15, P9bH1
T15 chain: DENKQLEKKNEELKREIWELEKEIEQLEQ

P5bH1 = molecular target: T16, P5bH1
T16 chain: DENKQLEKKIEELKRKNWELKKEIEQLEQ

P3bH1 = molecular target: T17, P3bH1
T17 chain: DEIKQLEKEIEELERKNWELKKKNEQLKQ

P4bH1 = molecular target: T18, P4bH1
T18 chain: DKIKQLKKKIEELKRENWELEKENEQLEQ

interaction score (P6bH1): 0.0343 | interaction score (4H883-bN): -1.53 | interaction score (4H918-bN): 1.02 | interaction score (4H855-bN): 0.668 | interaction score (4H953-bN): -0.455 | interaction score (4H908-bN): -0.753 | interaction score (4H797-bN): 0.569 | interaction score (4H967-bN): -0.535 | interaction score (P12bH1): -0.66 | interaction score (4H968-bN): -1.06
B1: 4H797-bN (peptide)
chain: DEIQQLKQKIQELEQENQELKWKIQELEQ

interaction score (P6bH1): -0.251 | interaction score (P1bH1): -0.0192 | interaction score (P2bH1): -1.01 | interaction score (P7bH1): -0.861 | interaction score (P8bH1): -0.578 | interaction score (P9bH1): -0.294 | interaction score (P5bH1): -0.826 | interaction score (P3bH1): -1.43 | interaction score (P12bH1): -1.4 | interaction score (P4bH1): -0.999
B2: P12bH1 (peptide)
chain: DKNKQLKKKIEELKRKIWELKKENEQLEQ

Reference: paper PMC10397247
